{"source": "patent US20220348620A1", "experiment_in_all_cases": "anti-Flag pull-down from MFF1-transfected PC3 cells, LC-MS/MS; intensity over control, mean of two experiments", "key": {"RPN2 (human)": {"biological_target": "RPN2 (human) (UniProt P04844)"}, "RPN1 (human)": {"biological_target": "RPN1 (human) (UniProt P04843)"}, "TFRC (human)": {"biological_target": "TFRC (human) (UniProt P02786)", "sequence (P02786 whole entry)": "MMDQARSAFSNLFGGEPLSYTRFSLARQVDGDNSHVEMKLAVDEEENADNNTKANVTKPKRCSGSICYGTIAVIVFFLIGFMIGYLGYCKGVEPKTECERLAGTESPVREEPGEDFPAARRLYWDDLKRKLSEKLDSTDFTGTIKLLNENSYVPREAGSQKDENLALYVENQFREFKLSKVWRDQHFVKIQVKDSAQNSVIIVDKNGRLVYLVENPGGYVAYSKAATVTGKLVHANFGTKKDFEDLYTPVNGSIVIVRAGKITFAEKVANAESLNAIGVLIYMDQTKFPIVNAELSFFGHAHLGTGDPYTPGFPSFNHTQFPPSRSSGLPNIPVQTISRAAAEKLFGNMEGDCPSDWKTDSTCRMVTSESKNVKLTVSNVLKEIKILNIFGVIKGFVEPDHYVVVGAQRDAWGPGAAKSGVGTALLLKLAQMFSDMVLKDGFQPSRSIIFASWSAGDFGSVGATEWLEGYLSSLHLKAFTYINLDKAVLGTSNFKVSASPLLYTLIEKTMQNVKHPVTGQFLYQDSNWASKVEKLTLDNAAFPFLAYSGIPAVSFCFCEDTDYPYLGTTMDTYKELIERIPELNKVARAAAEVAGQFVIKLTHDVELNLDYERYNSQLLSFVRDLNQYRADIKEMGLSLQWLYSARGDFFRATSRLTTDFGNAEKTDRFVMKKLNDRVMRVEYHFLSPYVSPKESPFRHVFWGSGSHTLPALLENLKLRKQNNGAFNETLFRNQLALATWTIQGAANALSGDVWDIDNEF"}, "COPA (human)": {"biological_target": "COPA (human) (UniProt P53621)", "sequence (P53621 whole entry)": "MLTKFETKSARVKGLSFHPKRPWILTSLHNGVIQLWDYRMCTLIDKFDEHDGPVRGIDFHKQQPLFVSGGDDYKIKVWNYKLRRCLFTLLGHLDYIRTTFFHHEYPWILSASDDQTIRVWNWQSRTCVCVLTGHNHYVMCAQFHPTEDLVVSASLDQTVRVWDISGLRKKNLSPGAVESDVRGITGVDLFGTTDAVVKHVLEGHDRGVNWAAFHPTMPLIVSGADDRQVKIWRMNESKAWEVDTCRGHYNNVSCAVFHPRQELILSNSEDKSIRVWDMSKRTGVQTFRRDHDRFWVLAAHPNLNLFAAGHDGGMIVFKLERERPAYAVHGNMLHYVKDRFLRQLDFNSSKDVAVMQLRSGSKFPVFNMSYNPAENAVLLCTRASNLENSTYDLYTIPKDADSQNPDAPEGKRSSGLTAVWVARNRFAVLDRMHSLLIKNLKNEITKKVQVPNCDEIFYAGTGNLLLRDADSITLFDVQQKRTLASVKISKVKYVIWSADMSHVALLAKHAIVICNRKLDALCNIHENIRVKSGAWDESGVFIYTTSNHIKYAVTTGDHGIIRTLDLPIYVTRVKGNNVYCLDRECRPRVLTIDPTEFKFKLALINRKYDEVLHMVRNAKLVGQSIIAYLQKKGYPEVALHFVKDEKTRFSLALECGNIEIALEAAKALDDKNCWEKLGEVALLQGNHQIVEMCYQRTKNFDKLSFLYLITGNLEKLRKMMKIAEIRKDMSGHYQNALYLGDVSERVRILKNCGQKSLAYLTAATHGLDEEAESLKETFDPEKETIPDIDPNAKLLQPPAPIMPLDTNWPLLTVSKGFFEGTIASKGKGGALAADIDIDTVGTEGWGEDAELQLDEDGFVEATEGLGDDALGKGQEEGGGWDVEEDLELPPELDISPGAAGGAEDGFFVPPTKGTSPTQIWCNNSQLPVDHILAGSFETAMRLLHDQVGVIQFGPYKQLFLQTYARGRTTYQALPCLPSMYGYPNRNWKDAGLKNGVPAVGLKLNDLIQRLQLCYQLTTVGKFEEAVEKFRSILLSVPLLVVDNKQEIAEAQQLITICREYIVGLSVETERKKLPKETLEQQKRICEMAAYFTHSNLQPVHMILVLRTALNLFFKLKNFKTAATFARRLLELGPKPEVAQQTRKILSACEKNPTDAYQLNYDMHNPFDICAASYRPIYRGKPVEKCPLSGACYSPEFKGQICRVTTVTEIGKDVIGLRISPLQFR"}, "DDOST (human)": {"biological_target": "DDOST (human) (UniProt P39656)", "sequence (P39656 43-456 limits assumed)": "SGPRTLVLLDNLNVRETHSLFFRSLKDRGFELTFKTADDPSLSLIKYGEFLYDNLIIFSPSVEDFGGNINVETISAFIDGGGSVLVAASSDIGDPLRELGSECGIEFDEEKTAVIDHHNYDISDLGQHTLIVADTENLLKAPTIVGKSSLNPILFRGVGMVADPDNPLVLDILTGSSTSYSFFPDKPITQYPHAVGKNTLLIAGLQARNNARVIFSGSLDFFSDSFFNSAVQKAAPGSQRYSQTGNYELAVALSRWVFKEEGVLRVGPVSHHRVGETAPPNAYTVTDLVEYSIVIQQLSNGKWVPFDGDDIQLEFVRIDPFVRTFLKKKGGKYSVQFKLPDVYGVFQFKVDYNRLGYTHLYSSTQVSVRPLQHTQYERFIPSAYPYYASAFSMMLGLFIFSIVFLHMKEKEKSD"}, "SLC25A13 (human)": {"biological_target": "SLC25A13 (human) (UniProt Q9UJS0)", "sequence (Q9UJS0 2-675 limits assumed)": "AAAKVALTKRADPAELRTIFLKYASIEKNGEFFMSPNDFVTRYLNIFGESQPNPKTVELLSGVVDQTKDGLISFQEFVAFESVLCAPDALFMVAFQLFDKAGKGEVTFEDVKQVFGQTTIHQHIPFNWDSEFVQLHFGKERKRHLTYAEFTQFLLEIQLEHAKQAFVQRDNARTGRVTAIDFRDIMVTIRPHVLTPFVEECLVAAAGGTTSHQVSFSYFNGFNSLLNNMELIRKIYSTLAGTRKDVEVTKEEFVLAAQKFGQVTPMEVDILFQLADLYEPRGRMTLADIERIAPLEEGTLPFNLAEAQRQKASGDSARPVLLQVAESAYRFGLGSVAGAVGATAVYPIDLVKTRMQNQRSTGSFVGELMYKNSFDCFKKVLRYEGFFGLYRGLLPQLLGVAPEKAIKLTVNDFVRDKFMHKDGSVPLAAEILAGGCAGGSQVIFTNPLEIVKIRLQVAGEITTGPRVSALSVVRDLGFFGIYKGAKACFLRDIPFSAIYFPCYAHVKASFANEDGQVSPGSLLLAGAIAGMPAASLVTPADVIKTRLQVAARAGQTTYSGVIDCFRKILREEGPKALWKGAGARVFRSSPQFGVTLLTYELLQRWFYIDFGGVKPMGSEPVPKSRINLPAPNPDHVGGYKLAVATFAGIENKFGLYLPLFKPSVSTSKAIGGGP"}, "OPA1 (human)": {"biological_target": "OPA1 (human) (UniProt O60313)", "sequence (O60313 88-960 limits assumed)": "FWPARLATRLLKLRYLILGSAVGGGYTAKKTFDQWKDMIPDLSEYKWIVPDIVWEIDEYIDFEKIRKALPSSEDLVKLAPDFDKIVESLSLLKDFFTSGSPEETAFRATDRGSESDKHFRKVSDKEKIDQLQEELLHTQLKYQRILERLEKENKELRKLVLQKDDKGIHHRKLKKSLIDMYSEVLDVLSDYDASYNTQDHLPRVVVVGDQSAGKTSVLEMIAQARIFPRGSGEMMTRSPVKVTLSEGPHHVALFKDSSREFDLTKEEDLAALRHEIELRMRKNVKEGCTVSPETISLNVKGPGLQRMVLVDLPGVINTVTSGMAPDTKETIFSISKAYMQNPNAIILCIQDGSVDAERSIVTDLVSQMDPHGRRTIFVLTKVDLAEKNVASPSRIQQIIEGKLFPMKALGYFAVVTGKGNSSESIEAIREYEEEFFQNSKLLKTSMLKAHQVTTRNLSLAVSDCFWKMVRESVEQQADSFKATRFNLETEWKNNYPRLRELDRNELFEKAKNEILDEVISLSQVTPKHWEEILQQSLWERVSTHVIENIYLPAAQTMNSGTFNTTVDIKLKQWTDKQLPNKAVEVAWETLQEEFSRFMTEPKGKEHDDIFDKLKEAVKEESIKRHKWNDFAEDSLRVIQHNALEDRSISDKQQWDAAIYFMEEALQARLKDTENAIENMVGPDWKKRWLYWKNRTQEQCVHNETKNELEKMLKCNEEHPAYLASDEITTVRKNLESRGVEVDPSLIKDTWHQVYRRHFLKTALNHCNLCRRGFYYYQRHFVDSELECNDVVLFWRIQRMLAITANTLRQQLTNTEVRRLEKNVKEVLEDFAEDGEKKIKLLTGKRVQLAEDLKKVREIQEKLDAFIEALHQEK"}, "HSPA8 (human)": {"biological_target": "HSPA8 (human) (UniProt P11142)"}, "DDB1 (human)": {"biological_target": "DDB1 (human) (UniProt Q16531)", "sequence (Q16531 2-1140 limits assumed)": "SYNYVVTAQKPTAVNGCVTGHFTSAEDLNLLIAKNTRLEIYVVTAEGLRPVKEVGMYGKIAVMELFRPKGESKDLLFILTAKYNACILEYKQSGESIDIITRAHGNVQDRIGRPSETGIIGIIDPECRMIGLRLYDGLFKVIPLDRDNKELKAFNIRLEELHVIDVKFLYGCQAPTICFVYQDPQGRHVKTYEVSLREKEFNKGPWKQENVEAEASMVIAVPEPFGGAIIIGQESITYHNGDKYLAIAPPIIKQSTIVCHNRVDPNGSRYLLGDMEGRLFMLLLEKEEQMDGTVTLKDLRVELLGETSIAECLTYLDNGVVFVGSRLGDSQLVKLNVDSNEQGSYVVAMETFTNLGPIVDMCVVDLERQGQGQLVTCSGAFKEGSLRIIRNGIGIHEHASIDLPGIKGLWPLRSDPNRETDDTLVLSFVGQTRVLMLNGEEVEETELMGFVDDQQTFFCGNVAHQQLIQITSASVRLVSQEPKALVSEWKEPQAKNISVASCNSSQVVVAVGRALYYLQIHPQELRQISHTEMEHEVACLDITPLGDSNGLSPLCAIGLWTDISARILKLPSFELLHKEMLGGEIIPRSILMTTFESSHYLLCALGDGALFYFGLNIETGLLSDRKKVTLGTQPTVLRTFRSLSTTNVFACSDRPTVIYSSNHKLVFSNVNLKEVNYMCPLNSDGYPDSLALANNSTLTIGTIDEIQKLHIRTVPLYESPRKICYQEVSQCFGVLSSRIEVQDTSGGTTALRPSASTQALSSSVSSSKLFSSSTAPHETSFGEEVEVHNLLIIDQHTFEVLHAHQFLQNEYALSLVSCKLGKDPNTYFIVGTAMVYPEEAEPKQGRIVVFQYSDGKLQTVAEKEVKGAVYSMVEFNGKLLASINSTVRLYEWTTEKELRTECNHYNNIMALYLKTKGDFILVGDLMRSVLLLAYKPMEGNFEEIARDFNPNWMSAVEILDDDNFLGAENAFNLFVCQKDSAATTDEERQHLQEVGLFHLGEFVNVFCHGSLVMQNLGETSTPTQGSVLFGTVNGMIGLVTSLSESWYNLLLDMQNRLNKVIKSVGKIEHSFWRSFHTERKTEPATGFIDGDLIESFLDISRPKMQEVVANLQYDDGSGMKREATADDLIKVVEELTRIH"}, "COPB1 (human)": {"biological_target": "COPB1 (human) (UniProt P53618)"}}}
{"substance": "Flag-MFF1 (from UniProt Q9GZY8 1-342)", "values": [{"measurement": "mean fold", "setting": "RPN2 (human)", "result": 12.1, "unit": "fold"}, {"measurement": "mean fold", "setting": "RPN1 (human)", "result": 10.8, "unit": "fold"}, {"measurement": "mean fold", "setting": "TFRC (human)", "result": 25.3, "unit": "fold"}, {"measurement": "mean fold", "setting": "COPA (human)", "result": 19.3, "unit": "fold"}, {"measurement": "mean fold", "setting": "DDOST (human)", "result": 17.1, "unit": "fold"}, {"measurement": "mean fold", "setting": "SLC25A13 (human)", "result": 15.1, "unit": "fold"}, {"measurement": "mean fold", "setting": "OPA1 (human)", "result": 25.2, "unit": "fold"}, {"measurement": "mean fold", "setting": "HSPA8 (human)", "result": 21.4, "unit": "fold"}, {"measurement": "mean fold", "setting": "DDB1 (human)", "result": 32.3, "unit": "fold"}, {"measurement": "mean fold", "setting": "COPB1 (human)", "result": 18.5, "unit": "fold"}]}
